Results published in patent publication US20250163183A1 (COAGULANT THERAPEUTICS, published 2025).
Numbering of substitutions follows the chain as printed.

T1: FVIIa (UniProt P08709 61-466)
T1 construct: also called factor VIIa
T1 sequence (looked up): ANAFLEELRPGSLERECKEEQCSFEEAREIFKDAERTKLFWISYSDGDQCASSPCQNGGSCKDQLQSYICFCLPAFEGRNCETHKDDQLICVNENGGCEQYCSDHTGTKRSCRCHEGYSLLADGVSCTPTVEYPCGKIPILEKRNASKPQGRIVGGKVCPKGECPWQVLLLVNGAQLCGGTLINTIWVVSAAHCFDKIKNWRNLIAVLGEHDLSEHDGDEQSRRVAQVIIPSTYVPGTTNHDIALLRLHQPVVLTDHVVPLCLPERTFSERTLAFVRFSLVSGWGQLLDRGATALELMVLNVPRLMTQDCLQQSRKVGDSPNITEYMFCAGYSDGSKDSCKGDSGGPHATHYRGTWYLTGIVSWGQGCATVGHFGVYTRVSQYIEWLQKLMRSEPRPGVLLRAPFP

B1: LP21 (SR16983-R4-P1-D01) (VHH, not shown: small tags and cut ends)
VHH: QLQLVESGGGLVQAGESLRLSCVLSGSTFGRNVITWYRQPPGKQREFIAMITTSGSTRYADSVKGRFTMSRDTAKNTAFLQMSNLKLEDTAVYYCWTAIAGQGEYWGQGTQVTVSS
notes: Llama VHH purified from E. coli periplasm
B2: LP16 (SR16983-R4-P1-A04) (VHH, not shown: small tags and cut ends)
VHH: QLQLVESGGGLVEAGGSLRLSCAVSGTTFSANTMVWHRQAPGKQREWVARISSSGTTNYADSVRGRFSLSRGNAKNTVYLQMNSLKPDDTAVYYCNAILPSRSIWGRGTQVTVSS
notes: as for B1
B3: LP3 (SR16983-R2-P4-E09) (VHH, not shown: small tags and cut ends)
VHH: QVQLVESGGGLVQPGGSLTLSCAASGTIESINDMGWYRQAPGKQRELVAAITSGGSTNYADSVKGRFTISRDNAKNTVYLQMNSLKPEDTAVYYCNAEVKRHYYYDSAGYRYWGQGTQVTVSS
notes: as for B1
B4: LP5 (SR16983-R3-P2-F04) (VHH, not shown: small tags and cut ends)
VHH: QVQLVESGGGLVQHGGSLRLSCAVSGSIFTTATMAWYRQAPGKQRDWVAVITTGGSTRYADDVKGRFAISRDNAKNTVYLQMNNLKPEDTAVYYCNAATRLSSTNYWGQGTQVSVSS
notes: as for B1
B5: LP14 (SR16983-R3-P4-A06) (VHH, not shown: small tags and cut ends)
VHH: QLQLVESGGGLVQAGGSLRLSCTASGSTSSIVIISWYRQAPGEQRDLVATINNGGDVDVADFVKGRFTISRDNAKNAVYLQMNNLKPEDTAVYYCSARTPSLRVTWFWGQGTQVTVSS
notes: as for B1
B6: LP4 (SR16983-R3-P2-A06) (VHH, not shown: small tags and cut ends)
VHH: QLQLVESGGGLVQAGGSLRLSCAASGSTFNFRIMGWYRQVPGKQRELVAVINSGGSADYTEDVKGRFTISRDDAKSTMYLQMNSLKPEDTAVYYCHAKKVEPTLFTTTYWGQGTQVTVSS
notes: as for B1
B7: LP6 (SR16983-R3-P2-F11) (VHH, not shown: small tags and cut ends)
VHH: QLQLVESGGGLVQPGGSLRLSCAASGSIGRLNVMGWFRQAPGKQRELVAVISSDNKKDYADSVQGRFTISRDNSKNTVYLQMNSLKPEDTAVYYCNVRWTMGGNYWGQGTQVTVSS
notes: as for B1
B8: LP19 (SR16983-R4-P1-B06) (VHH, not shown: small tags and cut ends)
VHH: QLQLVESGGGEVQAGESLRLSCAASGSTFSINVFAWYRDYPGKQRELVAVIGRSGTPRYADSVKGRFTISRDNAKNTVYLQMNSLEPEDTAVYYCHLGDTWGQGTQVTVSS
notes: as for B1
B9: LP17 (SR16983-R4-P1-A09) (VHH, not shown: small tags and cut ends)
VHH: QLQLVESGGGLVQPGGSLRLSCAASGTTSSLNLMGWYRQAPGKKRESVAHMTSDGRTDYVDSVKGRFTISRDNSKNTVYLQMNNLKPEDTAVYICYANPFLGSWSNYWGQGTQVTVSS
notes: as for B1
B10: SR16983-R2-P2-G09 (VHH)
VHH: QLQLVESGGGLVQAGGSLRLSCVASGTTFSIEETYWYRLAPGKQRELVAVISGGGNTNYADSVKGRFTISRDNAKNTVYLQMNSLKPEDTAVYYCSARTIATVKWGQGIQVTVSS
B11: SR16983-R2P1C11 (VHH)
VHH: QLQLVESGGGLVQSGGSLRLSCTASGSTVRVTAGGWYRQAPGNERELVADIDNGGRPTYADSVKGRFTISRDNAKNAVDLQMNNLKPEDTAVYYCFVIAIPDSAPRPRAYWGQGTQVTVSS
B12: SR16983-R3-P2-A08 (VHH)
VHH: QVQLVESGGGLVQAGGSLRLSCAASGRTSSNYNMGWFRQAPGKEREFVAAIPWTGSTTYYADPVKGRFTISRDSTKNTGDLQMNSLKPEDTAVYYCALGRRENYYALLQQRGYDYWGQGTQVTVSS
B13: SR16983-R3P2E7 (VHH)
VHH: QLQLVESGGGLVQAGGSLRLSCVASGTTFTIEDIGWYRLAPGKQRELVAIISGGNTNYADSVKGRFTISRDNAKNTVFLQMNSLKPEDTAVYYCNARTKATAKWGRGIQVTVSS
B14: SR16983-R3-P5-A11 (VHH)
VHH: QVQLVESGGGLVQAGGSLGLSCAASGTTFSFVYMGWYRQAPGNQRDLVARISSDGSTNYADSVKGRFTISGDNAKNTVYLQMNNLKPEDTARYYCFYNGHVNKWGQGTQVTVSS
B15: SR16983-R2-P4-B05 (VHH)
VHH: QVQLVESGGGLVQAGGSLRLSCAASGRVFGTYVMGWFRQAPGKEREFVAAFSRSTGHITYADSVKGRFTISRDDAKNTLYLQMNSLKPEDTAVYYCATRASINYNYANWPYWGQGTQVTVSS
B16: SR16983-R2-P4-G01 (VHH)
VHH: B15 VHH with V2L, V28T, F29V, T31S, V48L, F51N, H57N, I58T, T59V, T119N
B17: SR16983-R3-P4-E04 (VHH)
VHH: B15 VHH with V28T, F29V, T31S, V33A, M34V, V48L, F51S, H57N, I58T, T59V
B18: SR16983-R2P1C10 (VHH)
VHH: QLQLVESGGGLVQPGGSLRLSCAASGRIFGSYVMGWFRQAPGKEHEFVAASSRSTGNTVYLDSVKGRFTISRDDAKNTLYLQMNSLKPEDTAVYYCATRASINYNYANWPYRGQGTQVTVSS
B19: SR16983-R3P2A9 (VHH)
VHH: QVQLVESGGGLVQAGGSLRLSCAASGRTVGSYVMGWFRQAPGKERELLAASSRSTGNTVYADSVKGRFTISRDDAKNTVFLQMNSLKPEDTAVYYCAARASINYNYANWPYWGQGTQVTVSP
B20: SR16983-R3P2G9 (VHH)
VHH: B18 VHH with L2V, I28T, H45R, S51A, L61P, T98A, R112W
B21: SR16983-R3P2E05 (VHH)
VHH: QVQLVESGGGLVQAGGSLRLSCTTSGSTFSITAGGWYRQAPGEQRELVADVANDGSTSYAESVKGRFTISRDNAKNIVELQMSSLELEDTAVYVCFVVGISDSTPRPRAYWGQGTQVTVAS
B22: SR16983-R3P2B6 (VHH)
VHH: QLQLVESGGGLVQAGGSLRLACAASGFSFDDYAIGWFRQAPGKEREGVSCITSDGSTYYADSVKGRFTISSDNAKNTVYLQMNILKPEDTAVYYCARGGLLLPKPELFEYWGQGTQVTVSS
B23: LP1 (SR16983-R2-P3-D06) (VHH, not shown: small tags and cut ends)
VHH: QLQLVESGGGLVQAGGSLRLSCAASGSTFPINVFAWYRQAPGEQRELGELVAFIGRSGTTNYGDSVKGRFTISRDNAKNTVYLQMDSLRPEDTAVYYCNLGDYWGQGTQVTVSS
notes: as for B1

What follows are binders tested against T2, FXIa (UniProt P03951 19-625) (assay: ELISA, FXIa coated at 10 µg/mL, HRP-anti-V5, n=3).
T2 construct: also called factor XIa
T2 sequence (P03951 19-625 limits assumed): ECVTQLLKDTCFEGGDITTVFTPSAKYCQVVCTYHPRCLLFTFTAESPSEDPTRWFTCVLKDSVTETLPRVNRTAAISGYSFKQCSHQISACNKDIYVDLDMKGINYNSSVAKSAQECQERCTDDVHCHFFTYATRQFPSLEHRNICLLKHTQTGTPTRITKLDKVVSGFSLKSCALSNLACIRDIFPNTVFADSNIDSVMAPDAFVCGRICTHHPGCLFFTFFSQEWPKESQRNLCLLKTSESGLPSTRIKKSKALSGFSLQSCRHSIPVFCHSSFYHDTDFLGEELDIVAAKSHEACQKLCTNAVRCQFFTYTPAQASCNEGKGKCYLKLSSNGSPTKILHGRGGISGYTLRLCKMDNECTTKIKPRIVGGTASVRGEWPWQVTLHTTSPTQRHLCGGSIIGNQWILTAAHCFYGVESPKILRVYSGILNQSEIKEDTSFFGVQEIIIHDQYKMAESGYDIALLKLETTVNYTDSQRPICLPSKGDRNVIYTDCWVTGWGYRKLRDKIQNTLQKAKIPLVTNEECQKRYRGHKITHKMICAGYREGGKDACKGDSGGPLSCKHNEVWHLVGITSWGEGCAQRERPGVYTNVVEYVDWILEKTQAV

| Binder | binding result |
| --- | --- |
| B1 | no binding (tested: 2 µg/mL) |
| B2 | no binding (tested: 2 µg/mL) |
| B3 | no binding (tested: 2 µg/mL) |
| B4 | no binding (tested: 2 µg/mL) |
| B5 | no binding (tested: 2 µg/mL) |
| B6 | no binding (tested: 2 µg/mL) |
| B7 | no binding (tested: 2 µg/mL) |
| B8 | no binding (tested: 2 µg/mL) |
| B9 | no binding (tested: 2 µg/mL) |

What follows are binders tested against T3, human protein C (PC) zymogen (human, UniProt P04070 43-197; P04070 200-461) (assay: ELISA).
T3 construct: Bought
T3 sequence (P04070 43-197, chain 1 of 2): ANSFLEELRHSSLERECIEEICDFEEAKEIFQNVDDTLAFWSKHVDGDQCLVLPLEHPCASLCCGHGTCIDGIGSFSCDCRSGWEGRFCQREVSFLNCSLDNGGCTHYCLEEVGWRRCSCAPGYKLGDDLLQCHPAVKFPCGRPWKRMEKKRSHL
T3 sequence (P04070 200-461, chain 2 of 2): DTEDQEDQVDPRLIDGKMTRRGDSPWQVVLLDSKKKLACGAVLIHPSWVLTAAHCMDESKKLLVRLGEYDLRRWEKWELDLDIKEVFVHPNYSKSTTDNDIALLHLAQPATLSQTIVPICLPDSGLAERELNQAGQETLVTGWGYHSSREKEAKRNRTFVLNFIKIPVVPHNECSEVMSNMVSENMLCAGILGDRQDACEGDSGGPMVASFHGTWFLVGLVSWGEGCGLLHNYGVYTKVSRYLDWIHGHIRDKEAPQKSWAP

| Binder | binding result |
| --- | --- |
| B10 | no binding |
| B11 | no binding |
| B12 | no binding |
| B13 | no binding |
| B14 | no binding |
| B15 | no binding |
| B16 | no binding |
| B17 | no binding |
| B18 | no binding |
| B19 | no binding |
| B20 | no binding |
| B21 | no binding |
| B22 | no binding |

Each binder was assayed against T4, human APC-PPACK (active site-blocked APC) (human, UniProt P04070 43-461, active site bound by the tripeptide inhibitor Phe-Pro-Arg-chloromethylketone (PPACK)) (assay: ELISA).
T4 construct: Bought (Haematologic Technologies)
T4 sequence (P04070 other isoform, or with tags, fused parts or gaps): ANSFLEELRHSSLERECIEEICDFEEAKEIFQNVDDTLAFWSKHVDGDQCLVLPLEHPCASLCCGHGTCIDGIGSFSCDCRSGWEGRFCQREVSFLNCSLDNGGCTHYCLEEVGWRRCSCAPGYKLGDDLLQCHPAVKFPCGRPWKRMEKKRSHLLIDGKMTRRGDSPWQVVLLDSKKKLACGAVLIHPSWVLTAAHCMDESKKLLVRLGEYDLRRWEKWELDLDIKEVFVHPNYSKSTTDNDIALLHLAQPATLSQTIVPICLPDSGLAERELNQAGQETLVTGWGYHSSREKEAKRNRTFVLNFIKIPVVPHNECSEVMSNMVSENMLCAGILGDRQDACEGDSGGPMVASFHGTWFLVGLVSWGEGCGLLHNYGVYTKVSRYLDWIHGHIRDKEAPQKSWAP

| Binder | binding result |
| --- | --- |
| B10 | binds |
| B11 | binds |
| B12 | binds |
| B13 | binds |
| B14 | binds |
| B15 | binds |
| B16 | binds |
| B17 | binds |
| B18 | binds |
| B19 | binds |
| B20 | binds |
| B21 | binds |
| B22 | binds |

These binders were tested against T1, FVIIa (assay: ELISA, FVIIa coated at 10 µg/mL, HRP-anti-V5, n=3).

| Binder | binding result |
| --- | --- |
| B1 | no binding (tested: 2 µg/mL) |
| B2 | no binding (tested: 2 µg/mL) |
| B3 | no binding (tested: 2 µg/mL) |
| B4 | no binding (tested: 2 µg/mL) |
| B5 | no binding (tested: 2 µg/mL) |
| B6 | no binding (tested: 2 µg/mL) |
| B7 | no binding (tested: 2 µg/mL) |
| B8 | no binding (tested: 2 µg/mL) |
| B9 | no binding (tested: 2 µg/mL) |

Each binder was assayed against T5, human activated protein C (APC) (human, UniProt P04070 43-461) (assay: BLI (Octet): nanobody captured on anti-V5 sensor, dipped in 500 nM APC; buffer sensor reads 0.06).
T5 construct: Bought (Haematologic Technologies; plasma-derived from Enzyme Research Laboratories); Two-chain disulfide-linked protease
T5 sequence (P04070 other isoform, or with tags, fused parts or gaps): as above

| Binder | APC binding (nm) |
| --- | --- |
| B3 | 0.29 |
| B6 | 0.33 |
| B23 | 0.32 |
| B8 | 0.31 |

The binders below were run against T5, human activated protein C (APC) (assay: BLI, VHH captured via anti-V5, APC in solution).

| Binder | Kd [nM] | koff [s⁻¹] | kon [M⁻¹ s⁻¹] |
| --- | --- | --- | --- |
| B3 | 8.8 | 0.0016 | 180000 |
| B6 | 4.4 | 0.0027 | 550000 |
| B23 | 15 | 0.009 | 590000 |
| B8 | 6.1 | 0.0025 | 410000 |

What follows are binders tested against T3, human protein C (PC) zymogen (assay: ELISA screen, PC-coated wells, OD450, n=2).

| Binder | binding result |
| --- | --- |
| B8 | no binding |

These binders were tested against T3, human protein C (PC) zymogen (assay: ELISA screen, PC-coated wells, OD450, n=2 [Continued]).

| Binder | binding result |
| --- | --- |
| B3 | no binding |
| B6 | no binding |

The binders below were run against T5, human activated protein C (APC) (assay: cell-based or functional assay).

| Binder | APC-mediated histone H3 cleavage, 500 nM nanobody [% residual activity] |
| --- | --- |
| B23 | < 75 |
| B8 | < 75 |

Target: T5, human activated protein C (APC)
Experiment: cell-based or functional assay
Remark: another data set of the same source

| Binder | APC plasma T1/2 (min; mean) [min] |
| --- | --- |
| B3 | 28.8 |
| B6 | 33 |
